Measurements from patent publication US20240216513A1, “FATTY ACID-BIFUNCTIONAL DEGRADER CONJUGATES AND THEIR METHODS OF USE” (Novartis AG, priority 2021, published 2024).

Assays:
[1] = BTK FAC plasma stability assay, PBS buffer arm; format: physicochemical; details: for Plasma stability (h) PBS: incubation to 24 h
Method: (§1) Plasma stability was conducted in Dulbecco's PBS buffer, mouse plasma, rat plasma or human plasma frozen with K3-EDTA from BiolVT). Thawed plasma was centrifuged prior to warming for 5 minutes at 37° C. Working solutions were prepared from 10 mM DMSO solution to 500 µM in acetonitrile:water (1:1); 2 µL of working solution was added to 198 µL blank plasma or PBS and mixed manually. 4×45 µL of spiked matrix was aliquoted into glass incubation plates (96-well DW glass microplate) and sealed with blue silicon/PTFE seal; then incubated on a Thermo shaker (38° C. 300 RPM). Samples were prepared at 0, 2, 6 and 24 h timepoints, by protein precipitation with chilled acetonitrile containing internal standard Glyburide (0.2 µM). Precipitated samples were shaken for 10 minutes and stored at 4° C. until completion of the study. Following precipitation of the terminal sample, samples were frozen at −80° C. for 1 hour. Samples were then thawed prior to centrifugation (20 minutes, 4500 RPM at 4° C.). 50 µL of supernatant of each sample was transferred to 384 well analysis plate containing 30 µL of water. Semi quantitative analysis (analyte: internal standard peak area ratio) was performed by LC-MS/MS using a Sciex QTrap 5500.

[2] = BTK FAC plasma stability assay, mouse plasma; format: in vitro ADME; details: for Plasma stability (h) mouse / half-life at 5 µM: incubation to 24 h
Method: as §1

[3] = BTK FAC plasma stability assay, rat plasma; format: in vitro ADME; details: for Plasma stability (h) rat / half-life at 5 µM: incubation to 24 h
Method: as §1

[4] = BTK FAC plasma stability assay, dog plasma; format: in vitro ADME; details: for half-life at 5 µM: read-out: Plasma stability (h) dog (converted)

| Structure (SMILES) | % Release of degrader after 24 h PBS [1] [%] | Plasma stability (h) PBS [1] [h] | % Release of degrader after 24 h mouse [2] [%] | Plasma stability (h) mouse [2] [h] | % Release of degrader after 24 h rat [3] [%] | Plasma stability (h) rat [3] [h] | Plasma stability (h) dog [4] [h] | % Release of degrader after 24 h dog [4] [%] | half-life at 5 µM [2] [h] | half-life at 5 µM [3] [h] | half-life at 5 µM [4] [h] |
| --- | --- | --- | --- | --- | --- | --- | --- | --- | --- | --- | --- |
| CCCCCCCCCCCN(C(=O)CCCCCCCCCC(=O)O)[C@H](CCC(=O)NCCOCCOCCOCCOCCOCCOCCOCCOCCOCCOCCOCCOCCC(=O)NCC(=O)OC(C)(C)c1ccc(C(=O)Nc2cc(F)cc(-c3ncnc4[nH]c(-c5ccc(CCN6CCC7(CC6)CCN(C(=O)c6ccc(OC)c(N8CCC(=O)NC8=O)c6)CC7)cc5)cc34)c2C)c(F)c1)C(=O)O [Example A3, (R)-50-Carboxy-2-(4-((3-(6-(4-(2-(9-(3-(2,4-dioxotetrahydropyrimidin-1(2H)-yl)-4-methoxybenzoyl)-3,9-diazaspiro[5.5]undecan-3-yl)ethyl)phenyl)-7H-pyrrolo[2,3-d]pyrimidin-4-yl)-5-fluoro-2-methylphenyl)carbamoyl)-3-fluorophenyl)-2-methyl-4,7,47,52-tetraoxo-51-undecyl-3,10,13,16,19,22,25,28,31,34,37,40,43-tridecaoxa-6,46,51-triazadohexacontan-62-oic acid] | 1.9 | >48 | 5.2 | >48 | 9 | >48 | 44.4 | 9.7 |  |  |  |
| CCCCCCCCCCCN(C(=O)CCCCCCCCCC(=O)O)[C@@H](CCC(=O)NCC(=O)OC(C)(C)c1ccc(C(=O)Nc2cc(F)cc(-c3ncnc4[nH]c(-c5ccc(CCN6CCC7(CC6)CCN(C(=O)c6ccc(OC)c(N8CCC(=O)NC8=O)c6)CC7)cc5)cc34)c2C)c(F)c1)C(=O)O [Example A6, (S)-11-((1-Carboxy-4-((2-((2-(4-((3-(6-(4-(2-(9-(3-(2,4-dioxotetrahydropyrimidin-1(2H)-yl)-4-methoxybenzoyl)-3,9-diazaspiro[5.5]undecan-3-yl)ethyl)phenyl)-7H-pyrrolo[2,3-d]pyrimidin-4-yl)-5-fluoro-2-methylphenyl)carbamoyl)-3-fluorophenyl)propan-2-yl)oxy)-2-oxoethyl)amino)-4-oxobutyl)(undecyl)amino)-11-oxoundecanoic acid] | 0.4 | >48 | 37.4 |  | 21.1 |  |  | 4.6 | 10.7 | 36.6 | 12.7 |
| CCCCCCCCCCCN(C(=O)CCCCCCCCCC(=O)O)C(CCC(=O)NCCOCCOCCOCCOCCC(=O)NCC(=O)OC(C)(C)c1ccc(C(=O)Nc2cc(F)cc(-c3ncnc4[nH]c(-c5ccc(CCN6CCC7(CC6)CCN(C(=O)c6ccc(OC)c(N8CCC(=O)NC8=O)c6)CC7)cc5)cc34)c2C)c(F)c1)C(=O)O (centres unmarked) [Example A7, 26-Carboxy-2-(4-((3-(6-(4-(2-(9-(3-(2,4-dioxotetrahydropyrimidin-(2H)-yl)-4-methoxybenzoyl)-3,9-diazaspiro[5.5]undecan-3-yl)ethyl)phenyl)-7H-pyrrolo[2,3-d]pyrimidin-4-yl)-5-fluoro-2-methylphenyl)carbamoyl)-3-fluorophenyl)-2-methyl-4,7,23,28-tetraoxo-27-undecyl-3,10,13,16,19-pentaoxa-6,22,27-triazaoctatriacontan-38-oicacid] | 1.5 | >48 | 53.6 | 10.1 |  |  |  |  |  |  |  |
| CCCCCCCCCCCN(C(=O)CCCCCCCCCC(=O)O)C(CCC(=O)NCCOCCOCCOCCOCCOCCOCCOCCOCCC(=O)NCC(=O)OC(C)(C)c1ccc(C(=O)Nc2cc(F)cc(-c3ncnc4[nH]c(-c5ccc(CCN6CCC7(CC6)CCN(C(=O)c6ccc(OC)c(N8CCC(=O)NC8=O)c6)CC7)cc5)cc34)c2C)c(F)c1)C(=O)O (centres unmarked) [Example A8, 38-Carboxy-2-(4-((3-(6-(4-(2-(9-(3-(2,4-dioxotetrahydropyrimidin-(2H)-yl)-4-methoxybenzoyl)-3,9-diazaspiro[5.5]undecan-3-yl)ethyl)phenyl)-7H-pyrrolo[2,3-d]pyrimidin-4-yl)-5-fluoro-2-methylphenyl)carbamoyl)-3-fluorophenyl)-2-methyl-4,7,35,40-tetraoxo-39-undecyl-3,10,13,16,19,22,25,28,31-nonaoxa-6,34,39-triazapentacontan-50-oic acid] | 2.8 | >48 | 20.1 | >48 | 18.1 | >48 | >48 | 13.1 |  |  |  |
| CCCCCCCCCCCN(C(=O)CCCCCCCCCC(=O)O)C(CCC(=O)NCCOCCOCCOCCOCCOCCOCCOCCOCCOCCOCCOCCOCCC(=O)N1CCC(F)(C(=O)OC(C)(C)c2ccc(C(=O)Nc3cc(F)cc(-c4ncnc5[nH]c(-c6ccc(CCN7CCC8(CC7)CCN(C(=O)c7ccc(OC)c(N9CCC(=O)NC9=O)c7)CC8)cc6)cc45)c3C)c(F)c2)CC1)C(=O)O (centres unmarked) [Example A15, 44-Carboxy-1-(4-(((2-(4-((3-(6-(4-(2-(9-(3-(2,4-dioxotetrahydropyrimidin-1(2H)-yl)-4-methoxybenzoyl)-3,9-diazaspiro[5.5]undecan-3-yl)ethyl)phenyl)-7H-pyrrolo[2,3-d]pyrimidin-4-yl)-5-fluoro-2-methylphenyl)carbamoyl)-3-fluorophenyl)propan-2-yl)oxy)carbonyl)-4-fluoropiperidin-1-yl)-1,41,46-trioxo-45-undecyl-4,7,10,13,16,19,22,25,28,31,34,37-dodecaoxa-40,45-diazahexapentacontan-56-oic acid] | 0 | >48 | 96.9 | <2 | 39.4 | 30 | 23 | 22.5 |  |  |  |
| CCCCCCCCCCCN(C(=O)CCCCCCCCCC(=O)O)C(CCC(=O)NCCOCCOCCOCCOCCC(=O)NCC(=O)O[C@H]1CN(C(=O)Nc2cc(F)cc(-c3ncnc4[nH]c(-c5ccc(CCN6CCC7(CC6)CCN(C(=O)c6ccc(OC)c(N8CCC(=O)NC8=O)c6)CC7)cc5)cc34)c2C)C[C@@H]1CC(C)C)C(=O)O (stereo partly drawn) [Example A30, 23-Carboxy-1-(((3R,4S)-1-((3-(6-(4-(2-(9-(3-(2,4-dioxotetrahydropyrimidin-1(2H)-yl)-4-methoxybenzoyl)-3,9-diazaspiro[5.5]undecan-3-yl)ethyl)phenyl)-7H-pyrrolo[2,3-d]pyrimidin-4-yl)-5-fluoro-2-methylphenyl)carbamoyl)-4-isobutylpyrrolidin-3-yl)oxy)-1,4,20,25-tetraoxo-24-undecyl-7,10,13,16-tetraoxa-3,19,24-triazapentatriacontan-35-oic acid] |  | >72 |  | <1 |  |  |  |  |  |  |  |
| CCCCCCCCCCCN(C(=O)CCCCCCCCCC(=O)O)[C@@H](CCC(=O)NCC(=O)O[C@H]1CN(C(=O)Nc2cc(F)cc(-c3ncnc4[nH]c(-c5ccc(CCN6CCC7(CC6)CCN(C(=O)c6ccc(OC)c(N8CCC(=O)NC8=O)c6)CC7)cc5)cc34)c2C)C[C@@H]1CC(C)C)C(=O)O [Example A31, 11-(((S)-1-Carboxy-4-((2-(((3R,4S)-1-((3-(6-(4-(2-(9-(3-(2,4-dioxotetrahydropyrimidin-1(2H)-yl)-4-methoxybenzoyl)-3,9-diazaspiro[5.5]undecan-3-yl)ethyl)phenyl)-7H-pyrrolo[2,3-d]pyrimidin-4-yl)-5-fluoro-2-methylphenyl)carbamoyl)-4-isobutylpyrrolidin-3-yl)oxy)-2-oxoethyl)amino)-4-oxobutyl)(undecyl)amino)-11-oxoundecanoic acid] |  | >72 |  |  |  |  |  |  | < 1 | 1.2 | 33.6 |
| CCCCCCCCCCCN(C(=O)CCCCCCCCCC(=O)O)C(CCC(=O)NCCOCCOCCOCCOCCOCCOCCOCCOCCOCCOCCOCCOCCOCCOCCOCCOCCOCCOCCOCCOCCOCCOCCOCCOCCC(=O)NCC(=O)OC(C)(C)c1ccc(C(=O)Nc2cc(F)cc(-c3ncnc4[nH]c(-c5ccc(CCN6CCC7(CC6)CCN(C(=O)c6ccc(OC)c(N8CCC(=O)NC8=O)c6)CC7)cc5)cc34)c2C)c(F)c1)C(=O)O (centres unmarked) [Example A32, 86-Carboxy-2-(4-((3-(6-(4-(2-(9-(3-(2,4-dioxotetrahydropyrimidin-1(2H)-yl)-4-methoxybenzoyl)-3,9-diazaspiro[5.5]undecan-3-yl)ethyl)phenyl)-7H-pyrrolo[2,3-d]pyrimidin-4-yl)-5-fluoro-2-methylphenyl)carbamoyl)-3-fluorophenyl)-2-methyl-4,7,83,88-tetraoxo-87-undecyl-3,10,13,16,19,22,25,28,31,34,37,40,43,46,49,52,55,58,61,64,67,70,73,76,79-pentacosaoxa-6,82,87-triazaoctanonacontan-98-oic acid] | 1 | >48 | 5.8 | 27 | 6.1 | 20.8 | 37.3 | 4.7 |  |  |  |
